Assay results as given in the supplement of paper PMC12455559.

Test: purified protein yield per well (BCA); higher = higher soluble expression
Protocol: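 Candidate PET hydrolases were expressed in E. coli C41(DE3) in 2 mL autoinduction cultures in 24-deep-well plates, Ni-bead purified and released by SUMO protease cleavage on an OT-2 robot. Yield per well was measured by BCA; values below 25 ug (0.1 mg/mL) are below the detection threshold. Melting temperature was measured by differential scanning fluorimetry with Sypro Orange, ramping from 25 C at 0.3 C/step.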

Row | Sequence | purified protein yield per well
1 | ADSPYQRGPDPTPASVAATRGPFATTQATVPAGNGFNGGYVYYPTDTSQGTWGAVAIVPGYSALFANEEAWMGPWLASFGFVVIGIETNSRSDGADARATQLLAALDYLTRTSPIRDRVDANRLGVMGHSAGGAGTLLASLRRPTLKTAVGLAPGTPGNNLNMSTTQVPTMLLSGQNDGTVTPSYVQGIYNTLPAGVEHAWAELAGNDHLSFTRSNPTEMRLLIPWLKTFLDNDTRYTQFLCPLGNSTGVSRYNATCPLVPPDGPTTPPTSSPPTSAPPTTSAPTTPPPSGAPCTATYRTVNAWSGGFQGEVTVTAGTAAINGWTVTWGLNNGQSISQVWSGTLSTSGSTATIRNVSYNGSLAPGGTTSFGFLGSGTPAATSPTCASP [ESM025] | < 25 µg
2 | AEDNPHERGPAPTQQSIEAEKGPFEVDKVTVPGGDGFAGGTIYFPKDTSKGKFGGVAISPGFMSFEAMVSWYGPRLASQGFVVFTIGTFTPMDIPSSRADQLLASLKFLVEKSPAKDRVDGTRLALMGHSMGGGGTLHAAARTPGLQAAIPLTPWELTSDFSKVQVPTLVFTGQADFVAPASMGKSFYQSIPDSTEKGYVELAGGSHFDPLFPNVTYAKYSISWLKRFVDNDTRYDQFLCPVPKDPKLSAIEETCPLG [DP013] | < 25 µg
3 | AENPYERGPDPTESSIEASRGSFAVSQTSVSSLAVIGFGGGTIYYPTSTAQGTFGAVAISPGFTATQSSIAWIGPRLASQGFVVFTIDTNTIYDQPDSRGDQLLAALDYLTQRSDVRSRIDTSRLAVAGHSMGGGGSLEAAQDRPSLQAAVPLAPWNTQKSWSSLRVPTFIIGGESDTVAPVASHSIPFYTSIPASAEKAYMELDNASHFFPNTANTTMAKYTISWLKRFVDNDTRYEQFLCPAPDDRTISDYRDTCPHA [TEP129] | < 25 µg
4 | AENPYQRGPDPTPASVSANRGSFATTQVSVPSGNGFGGGIIYYPTDTSQGKFGAIAIVPGYTATWAAEGAWMGHWLASFGFVVIGIDTNNRNDWDNARGQQLLAALDYLTQRSSVRDRVDATRAAVMGHSMGGGGAAYASLQRPTLKTSVGLAPASFSQNLTTTRVPTMLLSGQNDGTVTPSSVLNLYNGIPAGVEKAYLELTGAGHGFPTSNNPTMMRVVIPWFKVFIDSDTRYTQFLCPLSNGNGIRSYQSTCPLVPSTPPTSTTTSTTTTTTTTTTTTTTTTSTSTTTTTPQPGGACSAVFRTTNSWPGGYQAEVTVTAGDSGVSGWTTHWTLGSGESVSQVWNGALTVSGSSVSVRNVSYNGSLAPNRSTTFGFIGGGAPPTSPFTCTSP [ESM029] | < 25 µg
5 | AETSYENGPDPTSSSIEAVKGPFEVSTQTVSSYSVRDFGGGTIYYPASSVEGGYGAVAISPGYTARKSSIAWLGSRLASQGFVVFTIDTKTTSDRPASRGDQLLASLDYLTENSRIKDQVDPNRLAVMGHSMGGGGVFEAAKDRPELQGAIAMTPWNTNKTFSEVSTPTLIFGAQDDTVAPVSRHSIPLYSGLPSTTPRTYLELRGASHFAPNRSNTTIAAQSIAWLKAFLDEDRRYDQFLCPGPTTGIDLSDVRTSCPF [DP036] | < 25 µg
6 | AGEQEYRRGPDPTLASLQAQEGPFAYATVTVPDQATYDGGTIYYPTDTSQGTFGAIAISPGYTGYQNSIAWYGRLLASNGFVVFTIDVENTNYDQPNARGEQLLDALDYLTQTSSVRSRIDPNRLAVAGHSMGGGGALRASYLRPSLQASIPLTPYHTWKNWSWVTVPTMIFGAENDTVTEVEDHAEPFYNTLTSAQERFYIELNAPADHLTPTSYDPTIGQYPRAFAKRYIDTDTRYEQFLCPPPAPSSAVEESRRACLGS [DP031] | < 25 µg
7 | AGNPHQRGPDPTPQSIVAEKGPFEVATAPAPAGNGFGGGTIYYPTDTSQGTFAGIAISPGFFGPQFSIDWYGPRLASQGFVVIAITTNALWDFPSQRADQLLAALKYLKQDSPAKDRLDGGRLGVMGHSMGGGGTMEAVLKDHSLKAAIPLTGWGITADYSGVQTPTMIIGAQFDVVAPDESYSIPFYKSLRPDLDKQFLQLAGGTHFSPNLPNTTIAKYSISWLKRFLDDDTRYQQFLCPVQPDPELSAHEATCHS [DP001] | < 25 µg
8 | AGNPYQRGPDPTVASVAATSGPFATAQLSVPPGNGFNGGMIYYPTDTSLGTWGAVAIVPGYTALFANEEAWMGPWLASFGFVVIGVETNSRTDYDVARGTELLAALDYLTQQSPVRDRVDATRLGVIGHSMGGGGVVYATEHRPSLKSAVALAPFSPSQTMATDTVPTMVMGGQNDTVVTPSYLSGLYATMPATTQSDFLQIAGADHVYYTHPNSVEMRILIPWIKTFIDNDTRYTQFLCPALADPTGVSIYQSKCPYVPGGSTPPPPTGGPVHAVGAGKCLDVPNSSTTGGTQLQIYTCDGQSNQTFTHTSTGALSVTDNGTTMCLDANGKGTTSGTKVIIWSCNGQTNQQWNVNSNGTITGVQSGLCLDVSGASTANGALVQLWTCNGQSNQQWKLG [TEP015] | < 25 µg
9 | ANPYERGPAPTLSSIQATTGPFATATTTVPSGNGFGGGTIYYPTDTSQGTFAAIAMSPGFFNTQSAISWYGKRIASQGFVFLTINTNTILDFPDSRATQLLAALDYLTQSSPVSSLIDSSRLGVMGYSMGGGGTLKASKTRPSLEAAVGVAPWHSTKNWSTNTVPSMMLGMQNDTVAPASSHAIPFYNSLPASIHKVYAEVRGASHSTPTSANTPIAQYSIAFLKQELDNDTRYTQFLCPAPAVGGTNPLSAYSSTCPF [DP067] | < 25 µg
10 | APAESAQRAASPYERGPAPTEQSVSAKLGPFAFTQVPAPANASAGFNQGTVYYPNDTGQGTFGAIAITPGFLSPESSIGWLGPRLASNGFVVITLTTNSPVDFPGGRAAQMRAALDWVTKQAPDAIRSRIDPTRLGVMGWSMGGGGTLEVANTHPNIQAAVPLAPWHLTNNWSTVKVPTMIIGAQNDLIAGVGAHSEPFYESLKSAPERAYAEIKGGNHFSVTVDTPLVGKLATSWMKRFIDDDTRYDQFLCPKPTDSTLSEYRDSCPNG [DP035] | < 25 µg
11 | APAHHAAPAHAAAHHHAPFAVRATVVPKTAVKAFGGGVIYTPQDTGKPVLGAVVITPGFTNTNADEKQLGELVASQGFVAFVIDTLDTGDLPDQRATEILAAADYLTGQSAVRSEVSAKDVGLIGYSFGGGGTMQAAQARPSIKAAIGLMPFDFPPASDPDAQYPAYPKLTTPTLVITGQKDDVADPADFGKPAYDSIPAGTPKQYLELKGLDHYAGEHAPVAAIRNAVTAFLKRYLDGNSAYAKFICPAPKVGGPITASYSSCPKG [ESM112] | < 25 µg
12 | APANPYERGPDPTEASVTAEKGPFTIERIDVPTGSGTGFNRGTIYAPTDTSQGTFGAIAVSPGFVSPQAWIDWYGPRLASQGFVVMTLETLNLMDVPDSRANQLLAALDYLTGKSTVKNRIDPARLAVMGHSMGGGATLRAAAERPALQAAIPLAPWHTDRDWQGVTVPTMIMGADNDFIAGVGAHAEPFYRNLTSAPEKAYLELRNAGHMSFNTPNTTIAKYGISWMKRFVDDDTRYDRFLCPAPRPGAAINEYRDTCPNG [TEP186] | < 25 µg
13 | APAPATAAAADNPYERGPDPTEDSIEAARGPYDVAETSVSSWVVSGFGGGTVYYPRETDDGTFGAVAVAPGYTASQSSMAWLGPRLASQGFVVFTIDTLTRLDQPASRGRQLLAALDYLTERSAVRNRIDASRLGVMGHSMGGGGTLEAAADRPSLQAAVPLAPWNLDKTWGELRVPTMIIGADGDSIAPVSSHSEPFYESLPGGLDRAYLELNNADHFTPNLPDTTLAKYSLSWLKRFIDNDTRYEQFLCPLPRPGWYIEEYRGTCPHLS [TEP124] | < 25 µg
14 | APGPSAPCADCSRGPNPTVASLQSRSGPFTVSTFSVSGYLRGFGNSTVHYPTNATGKMGAIAVIPGYLSYEDSIRWWGPRLASHGFVVITMNTNTIYDQPDSRATQLSRALDYVIEQSNSRSSPISGKVDSTRLGAIGWSMGGGGSLKLSTERSLNAIIPQAPYYAGLNRFNTINTPTMILACSADVVAPVASHASPFYNRIPDATPKAFLEIYGGSHFCANSGYPNEDLLGMYGISWMKRFIDFDSRYSQFLCGPNHAADLRVSEYRENCNY [ESM165] | < 25 µg
15 | APPVAGPYQRGPAPTEEVLVAARGPFAVTQTRMAAGQGTGAGTVHHPTDASQGTFGAVAVMPGFMGTEKSIRLYGPLLASHGFVVLTLSSVRRADFPDQRADQLLAALDRLVAGPAKGLIDAERLAVVGHSMGGGATLRAAARRPGLKAAVPLAPWHVRRDWRSVRVPTLIFGSENDRVAPVDKHAEPFYASLTRAPEKAYVELRDGGHLSFNTANPVIAKYTVSWLKRYVDDDVRYDPFLCPGPAFPSPTIREYRGTCPS [DP060] | < 25 µg
